Assay results: the RNAGym collection of RNA variant scans (doi:10.1093/molbev/msab373)

B1: Azoarcus group I ribozyme (parent)
chain: GUGCCUUGCGCCGGGAAACCACGCAAGGGAUGGUGUCAAAUUCGGCGAAACCUAAGCGCCCGCCCGGGCGUAUGGCAACGCCGAGCCAAGCUUCGGCGCCUGCGCCGAUGAAGGUGUAGAGACUAGACGGCACCCACCUAAGGCAAACGCUAUGGUGAAGGCAUAGUCCAGGGAGUGGCGAAAGUCACACAAACCGG

Variants of: B1
Test: reverse-splicing fitness (ratio to wild type); higher = more active; in vitro selection; Mg2+ level not given
In short: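 An in vitro group I ribozyme library with randomized positions was T7-transcribed and gel-purified. In triplicate, 10 pmol RNA in EPPS pH 7.5 was reacted with 50 pmoles of a 30-nt RNA substrate for 1 h at 37 °C across several added MgCl2 levels (1–48 mM), then stopped with EDTA. Products were reverse transcribed from a substrate-complementary primer, PCR-amplified and sequenced (HiSeq 4000). Fitness is a variant's read proportion after selection over that before, normalised to wild type.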

Variant | reverse-splicing fitness
C82U A111C A120U A145C C150U U176G | 0.0029
C82U A111C A120U A145U C150G C169A U176A | 0.00336
C82U A111C A120U A145U C150G C169A U176G | 0.00233
C82U A111C A120U A145U C150G C169A U176C | 0.00322
C82U A111C A120U A145C C150G C169A U176C | 0.00245
C82U A111C A120U A145C C150G C169A U176G | 0.0024
C82U A111C A120U A145C C150G C169A U176A | 0.00289
C82U A111C A145G | 0.266
C82U A111C A145C | 0.239
C82U A111C A145C U176C | 0.0915
C82U A111C A145C U176G | 0.0186
C82U A111C A145C U176A | 0.0676
C82U A111C A145C C150A C169A | 0.00786
C82U A111C A145C C150A C169G | 0.00773
C82U A111C A145C C150A C169U | 0.00887
C82U A111C A120U A145C C169A | 0.00236
C82U A111C A120U A145C C169G | 0.00298
C82U A111C A120U A145C C169U | 0.0039
C82U A111C A120U A145U C150A U176G | 0.00247
C82U A111C A120U A145U C150A U176A | 0.00357
C82U A111C A120U A145U C150A U176C | 0.00465

Variant | reverse-splicing fitness
C82U A111C A120U A145G C150A C169A U176A | 0.00664
C82U A111C A120U A145G C150A C169A U176C | 0.00409
C82U A111C A120U A145G C150A C169A U176G | 0.00278
C82U A111C A120U A145U C150G C169G U176G | 0.0024
C82U A111C A120U A145U C150G C169G U176C | 0.00224
C82U A111C A120U A145U C150G C169G U176A | 0.00332
C82U A111C A120U A145U | 0.0254
C82U A111C A120U A145C | 0.0226
C82U A111C A120U A145G | 0.0248
C82U A111C A120U A145G C150G C169U U176C | 0.00661
C82U A111C A120U A145G C150G C169U U176A | 0.0084
C82U A111C A120U A145G C150G C169U U176G | 0.00411
C82U A111C A120U A145G C150A C169G U176A | 0.00613
C82U A111C A120U A145G C150A C169G U176G | 0.00246
C82U A111C A120U A145G C150A C169G U176C | 0.00549
C82U A111C A120U A145U C150A C169A U176C | 0.00253
C82U A111C A120U A145U C150A C169A U176G | 0.00255
C82U A111C A120U A145U C150A C169A U176A | 0.00217
C82U A111C A120U C169A U176G | 0.00185
C82U A111C A120U C169A U176A | 0.00309
C82U A111C A120U C169A U176C | 0.00352

Variant | reverse-splicing fitness
C82U A111C A120U C150A C169A U176C | 0.00354
C82U A111C A120U C150A C169A U176A | 0.00438
C82U A111C A120U C150A C169A U176G | 0.00303
C82U A111C A120U A145G C169A U176A | 0.00295
C82U A111C A120U A145G C169A U176G | 0.00196
C82U A111C A120U A145G C169A U176C | 0.0035
C82U A111C A120U A145C C150A C169A U176G | 0.00183
C82U A111C A120U A145C C150A C169A U176C | 0.00295
C82U A111C A120U A145C C150A C169A U176A | 0.00222
C82U A111C A120U C150A C169A | 0.00472
C82U A111C A120U C150A C169U | 0.00491
C82U A111C A120U C150A C169G | 0.00399
C82U A111C A120U C169G U176C | 0.0039
C82U A111C A120U C169G U176G | 0.00177
C82U A111C A120U C169G U176A | 0.0032
C82U A111C A145C C150A C169A U176A | 0.0134
C82U A111C A145C C150A C169A U176G | 0.00794
C82U A111C A145C C150A C169A U176C | 0.00874
C82U A111C A145C C150G U176G | 0.00264
C82U A111C A145C C150G U176A | 0.00961
C82U A111C A145C C150G U176C | 0.0151

Variant | reverse-splicing fitness
C82U A111C A120U A145U U176G | 0.00361
C82U A111C A120U A145U U176C | 0.0113
C82U A111C A120U A145U U176A | 0.00693
C82U A111C A120U A145G U176C | 0.0113
C82U A111C A120U A145G U176G | 0.00307
C82U A111C A120U A145G U176A | 0.00722
C82U A111C A120U C150A U176A | 0.00441
C82U A111C A120U C150A U176C | 0.00573
C82U A111C A120U C150A U176G | 0.00295
C82U A111C A120U A145C C150U | 0.00868
C82U A111C A120U A145C C150A | 0.00398
C82U A111C A120U A145C C150G | 0.00528
C82U A111C A120U A145G C150U C169U U176C | 0.00415
C82U A111C A120U A145G C150U C169U U176G | 0.00271
C82U A111C A120U A145G C150U C169U U176A | 0.00522
C82U A111C A120U A145U C150A C169G U176G | 0.00205
C82U A111C A120U A145U C150A C169G U176A | 0.00239
C82U A111C A120U A145U C150A C169G U176C | 0.003
C82U A111C A145C C150U U176C | 0.0358
C82U A111C A145C C150U U176G | 0.00938
C82U A111C A145C C150U U176A | 0.0229
